In the supplement of paper PMC10126150:
± gives the standard deviation of the averaged measurements.

System: ATP
Test: switch fluorescence ratio, 500 uM ATP over buffer (Cy3 cluster intensity, sum of 5 cycles each) (fold (ratio)); higher = stronger signal-on switching upon ATP binding; sequences stand for … in TCGTCGGCAGCGTCAGATGTGTATAAGAGACAGTTTTTTTTTTTTTTTTTTTTTTTTT…TC
Conditions: aptamer strand: ATP DNA aptamer (quencher-CACCTGGGGGAGTATTGCGGAGGAAGG + anchor), 100 nM annealed; ATP concentration: 500 uM
Outline: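 Five buffer/ATP imaging cycles were run on Cy3-labelled switching-strand clusters on a modified Illumina MiSeq flow-cell, with NaOH stripping and re-annealing between cycles. In each cycle, clusters annealed to 100 nM quencher-labelled ATP aptamer were imaged in selection buffer, then after 15 min with 500 uM ATP at 22 °C. Per cluster, the fluorescence ratio is summed target-cycle over summed buffer-cycle Cy3 intensity, averaged per switch-domain sequence. Only clusters within 100-1000 RFU were kept.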
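Further: ATP exposure 15 min at 22 °C before imaging.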

Sequence | switch fluorescence ratio
TAACGGTGTA | 1.02 ± 0.026
GGCGAGAGGG | 0.979 ± 0.042
CCATACGTTG | 1.037 ± 0.0051
ATTGGGGGTC | 0.995 ± 0.05
TGTTAGTGGG | 1.02 ± 0.032
CCGAGTGGGC | 1.09 ± 0.012
AGGCCGGCAA | 1.02 ± 0.045
TCATGCTTTT | 1.03 ± 0.019
TGGGGAGTTA | 0.992 ± 0.021
TAACAGCTGT | 1.04 ± 0.041
TTTTGCCGAG | 0.994 ± 0.011
CTTTTAATGG | 1.03 ± 0.068
ATTAATTAGG | 0.989 ± 0.015
ATGCGAAGAT | 1.01 ± 0.011
CGGTATGTAT | 1.02 ± 0.042
GGGTAAGGAC | 1.03 ± 0.014
TCCATAATAG | 1.16 ± 0.028
TGGGTATTAC | 1.14 ± 0.26
CGTTCATGGG | 0.993 ± 0.017
GGACTATGCG | 0.985 ± 0.032
TGAATTCTTG | 1 ± 0.034
GGCATTGGGT | 1.0068 ± 0.00028
TATCCTATTA | 1.003 ± 0.0036

Sequence | switch fluorescence ratio
CCTGTGTTCG | 1 ± 0.025
GGGGAGGGGT | 1.01 ± 0.054
GAAAGACGCT | 1.15 ± 0.3
CGGCATTTTT | 1.03 ± 0.036
TGTTTGAGGG | 1.02 ± 0.024
GGGATCTGCG | 0.95 ± 0.017
GACTTGTTGG | 0.974 ± 0.042
GATAGTGAGC | 0.983 ± 0.036
ACACAGGGGG | 1.0997 ± 0.00043
GGGAAATGCG | 0.9983 ± 0.0053
GACATGGCTT | 0.975 ± 0.011
TTTTAGTCT | 1.01 ± 0.023
CAGGTCGTT | 1.01 ± 0.054
AAGGGGTACA | 1.01 ± 0.02
AATACTCGGG | 1.07 ± 0.033
GAGCATAGGG | 1.02 ± 0.013
TAGAGGAAGC | 1 ± 0.011
AGGAATAAAA | 0.961 ± 0.1
ATGTGGGGTG | 1.06 ± 0.053
TACAGCTTAA | 1.022 ± 0.0019
AAAAGCAGGA | 1.05 ± 0.052
ATGTCGGATT | 1.002 ± 0.0021
TTAGTTATAT | 1.013 ± 0.0099

Sequence | switch fluorescence ratio
TTAGCCCTCA | 0.981 ± 0.014
GGGGGGTCCG | 1.01 ± 0.074
AGTTGACTTT | 0.986 ± 0.011
GAGATGCTGC | 1.05 ± 0.017
TTTCAGTATT | 1.01 ± 0.029
CATGATTATT | 0.986 ± 0.024
TAAATGTCTT | 1.025 ± 0.0077
AAGATGTTTT | 1.01 ± 0.04
TGGGATTCCC | 1.01 ± 0.017
TTCCGTTTGA | 1.24 ± 0.42
ATTTATCCTC | 1.05 ± 0.029
CGGGTGTGGG | 1.009 ± 0.0012
TTTTGCATTC | 1.1 ± 0.053
GTTTTAGGGA | 0.979 ± 0.037
GGCATTACTA | 1.21 ± 0.022
TAGAATATAG | 0.991 ± 0.0011
GCATTAAGAC | 1.23 ± 0.091
AAGGTCTGTG | 0.993 ± 0.014
TTGGCATGCG | 1.01 ± 0.021
GGGGTTCGAA | 0.963 ± 0.016
GGGTTATTGT | 1 ± 0.016
TGAAAGTGTT | 0.994 ± 0.012
GATAGTTAGG | 1.01 ± 0.021

Sequence | switch fluorescence ratio
CGGGGAGTGC | 1.01 ± 0.061
GGTTCGGGGA | 0.98 ± 0.019
TATTTATAAG | 0.96 ± 0.015
CGTCTATTTG | 0.993 ± 0.023
TTTGAGAGAT | 0.991 ± 0.029
GGGGGTTGTA | 0.978 ± 0.054
AGGACTTAGG | 1.06 ± 0.056
TCGCGATAAA | 1.06 ± 0.017
TGCAGGTTTT | 1.01 ± 0.054
GGCTTTATGG | 0.977 ± 0.024
AATGGGTCTG | 0.978 ± 0.052
GGGCAAATTG | 0.968 ± 0.028
AAGTTTATAA | 1 ± 0.015
GGAACGAGAG | 0.989 ± 0.03
GCAGTGGGTT | 1.02 ± 0.074
ATGATTCAGC | 1.03 ± 0.083
TTATTGACAT | 0.995 ± 0.021
GACGATAGTT | 0.977 ± 0.026
GGGTTTTTTC | 0.9798 ± 0.0046
TCAAATCCTG | 1.05 ± 0.047
AGGGTCTCCG | 1 ± 0.062
AAGTGGGTGG | 1.02 ± 0.021
GGGTTAGACG | 1.01 ± 0.011

Sequence | switch fluorescence ratio
AACGGCTA | 1.047 ± 0.0045
TGGATGGGCT | 1.03 ± 0.037
GACTTACCAC | 1.17 ± 0.052
TTCTGCTTTC | 1.11 ± 0.03
TAGATGAGGC | 1.01 ± 0.061
GGGAGGTGGT | 1.08 ± 0.17
CACTGTGACA | 1.083 ± 0.0052
AAGGGGCACA | 1.0522 ± 0.00079
AAGAAAGGCT | 0.982 ± 0.033
TACTGTCTTG | 0.97 ± 0.014
TGGAATAGGG | 0.992 ± 0.011
TGAGGGACGC | 0.996 ± 0.021
CTTTTAGGTA | 0.9425 ± 0.0069
TAATTTTAGT | 1.0092 ± 0.00027
CGCATGGGGG | 1.08 ± 0.011
TTTTTGGGTC | 1.03 ± 0.12
CCTTATTAGT | 0.984 ± 0.012
TTTCTGGCGG | 1.02 ± 0.025
ATGAGCTGTG | 1.01 ± 0.056
GTTTTTTTGA | 1.0032 ± 0.00018
TGAGGGGATT | 1 ± 0.022
GGAAAGTCGT | 1.03 ± 0.018
AAGGGTCGCA | 1.03 ± 0.036

Sequence | switch fluorescence ratio
TTTGGGCAGC | 1.083 ± 0.0087
ACTTGTTGCG | 0.989 ± 0.056
AGTGGTGATC | 1.04 ± 0.018
CCTAACCGTC | 1.156 ± 0.0056
TGCAATAATA | 1.06 ± 0.091
TAATGGGATA | 1.02 ± 0.055
GGTGATTGCT | 0.967 ± 0.036
AAAGGTTTGC | 1 ± 0.039
CGATATTGGT | 1 ± 0.017
ACGAGTTAGG | 1.044 ± 0.0014
ACGCTTTATG | 1.03 ± 0.04
AACCGGGGGT | 0.991 ± 0.038
CGGGGGGCGT | 0.999 ± 0.021
AACGGCCCTG | 1.03 ± 0.026
TTTAGTTTGG | 1 ± 0.031
GGGGGGGTGT | 1.01 ± 0.05
TTACTACCGG | 1.04 ± 0.012
ACGAATTTGT | 1.03 ± 0.038
TGTGGGTTTA | 0.988 ± 0.033
GCAGCAGGGG | 1.84 ± 0.23
GGGGGAAGAA | 1 ± 0.028
AGTTGCATGC | 0.9677 ± 0.0093
TGGGAGCAGC | 1.02 ± 0.038

Sequence | switch fluorescence ratio
TGCAGGAGAA | 0.9718 ± 0.0087
ATAGGAGGTC | 1.01 ± 0.013
CGGGCTGTGG | 0.992 ± 0.03
AATATATTTT | 0.999 ± 0.047
CACAGTAAAC | 1.25 ± 0.11
GGGCAGGGTT | 0.999 ± 0.03
TGGGGGACTA | 0.967 ± 0.033
TGGGAGGGGC | 1.01 ± 0.021
GACGAACATT | 1.18 ± 0.21
CTGTCAAGAT | 1.02 ± 0.024
TAGAACAACT | 1.21 ± 0.34
CGGCGGCAGG | 0.9881 ± 0.0068
GGTTGGGTGG | 0.986 ± 0.03
TTAGCGGGTT | 0.988 ± 0.048
CGGTGTGACA | 0.993 ± 0.051
AGGGTGAACC | 0.99 ± 0.016
GATCATTGTT | 1.007 ± 0.0088
TGTCGGTAAT | 1.03 ± 0.022
TCTGAGAGGG | 1 ± 0.017
